Laboratory results as given in patent US20190315859A1 (EUREKA THERAPEUTICS, published 2019).

T1: Recombinant human CD19 ECD-Fc fusion protein (human, UniProt P15391 20-291, biotinylated for the Octet assay (sites not given); not biotinylated when coated for ELISA)
T1 construct: domain: Fc of human IgG1 lacking the CH1 domain and including the hinge region; also called human CD19-Fc; hCD19 ECD-Fc; not shown: Fc of human IgG1 lacking the CH1 domain and including the hinge region
T1 sequence: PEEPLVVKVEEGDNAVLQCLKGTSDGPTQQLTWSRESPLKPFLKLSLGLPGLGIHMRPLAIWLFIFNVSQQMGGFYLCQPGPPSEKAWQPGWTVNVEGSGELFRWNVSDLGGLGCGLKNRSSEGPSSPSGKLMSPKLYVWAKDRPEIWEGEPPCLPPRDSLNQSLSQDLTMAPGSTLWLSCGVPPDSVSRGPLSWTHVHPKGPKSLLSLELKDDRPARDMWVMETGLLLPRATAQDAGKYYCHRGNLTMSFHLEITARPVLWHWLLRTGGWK

T2: human CD19 expressed on the cell surface (native format) (human, UniProt P15391 20-488)
T2 construct: Endogenous on Raji, Jeko-1 and primary human B cells (CD20+CD3- gate); transduced into NIH/3T3 (3T3-CD19); also called hCD19; cell-surface human CD19
T2 sequence: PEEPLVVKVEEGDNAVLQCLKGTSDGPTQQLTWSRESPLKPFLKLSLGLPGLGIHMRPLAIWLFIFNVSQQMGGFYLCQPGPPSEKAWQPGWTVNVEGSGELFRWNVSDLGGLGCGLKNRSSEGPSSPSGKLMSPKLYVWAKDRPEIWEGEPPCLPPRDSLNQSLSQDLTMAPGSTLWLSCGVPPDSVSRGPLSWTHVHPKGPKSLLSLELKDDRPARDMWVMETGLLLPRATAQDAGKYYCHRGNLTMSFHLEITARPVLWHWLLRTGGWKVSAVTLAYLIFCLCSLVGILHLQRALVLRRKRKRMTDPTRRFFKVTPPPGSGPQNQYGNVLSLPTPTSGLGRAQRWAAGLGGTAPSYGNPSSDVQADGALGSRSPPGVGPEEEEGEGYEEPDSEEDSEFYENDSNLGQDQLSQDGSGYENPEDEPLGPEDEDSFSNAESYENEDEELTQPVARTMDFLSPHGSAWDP

B1: 23 (scFv)
scFv (VL-linker-VH), shown on M13 phage: QSVLTQPPSVSAAPGQKVTISCSGSSSNIGNNYVSWYRQLPGTAPKLLIYENNKRPSGIPDRFSGSKSGTSATLGITGLQTGDEADYYCGTWDSSLRAGVFGTGTKVTVLGSRGGGGSGGGGSGGGGSLEMAQVQLVESGGGLVQPGGSLRLSCAASGFTFSSYAMSWVRQAPGKGLEWVSGISASGGSTYYADSVKGRFTISRDNSKNTLYLQMNSLRAEDTAVYYCARYYLSQIDSWGQGTLVTVSS
notes: hit from protein screening (ELISA); also called clone 23; anti-human CD19 scFv phage clone 23
B2: 54 (scFv)
scFv (VL-linker-VH), shown on M13 phage: SYVLTQPPSVSVSPGQTASITCSGDKLGDKYASWYQQKPGQSPVLVIYQDNKRPSGIPERFSGSNSGNTATLTISGTQAMDEADYYCQAWDSSTEDVFGPGTKVTVLGSRGGGGSGGGGSGGGGSLEMAEVQLVESGGGLIQPGGSLRLSCAASGFTVSSNYMSWVRQAPGKGLEWVSVIYSGGSTYYADSVKGRFTISRDNSKNTLYLQMNSLRAEDTAVYYCARGGISDDYYGSGSYDNWGQGTLVTVSS
notes: hit from protein screening (ELISA); also called clone 54; anti-human CD19 scFv phage clone 54
B3: 43 (scFv)
scFv (VL-linker-VH), shown on M13 phage: SYELTQPPSASGTPGQRVTISCSGSSSNIGSNYVYWYQQLPGTAPKLLIYRNNQRPSGVPDRFSGSKSGTSASLAISGLRSEDEADYYCAAWDDSLSGYVFGTGTKVTVLGSRGGGGSGGGGSGGGGSLEMAEVQLVESGGGLIQPGGSLRLSCAASGFTVSSNYMSWVRQAPGKGLEWVSVIYSGGSTYYADSVKGRFTISRDNSKNTLYLQMNSLRAEDTAVYYCARGGFGAEFDYWGQGTLVTVSS
notes: hit from protein screening (ELISA); also called clone 43; anti-human CD19 scFv phage clone 43
B4: 36 (scFv)
scFv (VL-linker-VH), shown on M13 phage: DIQLTQSPSSLSAYVGDRVTITCRASQGITNSLAWYQQKPGKAPKLLLHAASRLESGVPSRFSGSGFGTDFTLTISSLQPEDFAVYYCQHYLGTPYSFGQGTKVEIKRSRGGGGSGGGGSGGGGSLEMAEVQLVESGGGLVQPGGSLRLSCAASGFTVSSNYMSWVRQAPGKGLEWVSAISGSGGSTYYADSVKGRFTISRDNSKNTLYLQMNSLRAEDTAVYYCARMNIDYWGQGTLVTVSS
notes: hit from protein screening (ELISA); also called clone 36; anti-human CD19 scFv phage clone 36
B5: 9 (scFv)
scFv (VL-linker-VH), shown on M13 phage: QTVVTQEPSVSAAPGQKVTISCSGSSSNIGNNYVSWYQQLPGTAPKLLIYDNNKRPSGIPDRFSGSKSGTSATLGITGLQTGDEADYYCGTWDSSLSAGVFGTGTKLTVLGSRGGGGSGGGGSGGGGSLEMAQVQLVETGGGLVQPGGSLRLSCAASGFTFSSYAMSWVRQAPGKGLEWVSAISGSGGSTYYADSVKGRFTISRDNSKNTLYLQMNSLRAEDTAVYYCARYYYSRLDYWGQGTLVTVSS
notes: hit from protein screening (ELISA); also called clone 9; anti-human CD19 scFv phage clone 9
B6: 40 (scFv)
scFv (VL-linker-VH), shown on M13 phage: EIVMTQSPLSLSVTPGEPASISCRSSQSLLDSNGFNSLDWYLQKPGQSPQLLIHLGSDRASGVPDRFSGSGSGTDFTLKISRVEAEDVGIYYCMQSLQIPTFGQGTKVEIKRSRGGGGSGGGGSGGGGSLEMAQMQLVQSGAEVKKAGSSVKVSCETSGGTFSSSSVNWVRQAPGQGLEWMGGIIPIVGTPNYAQKFQDRVTITAVESTFTAYMELSGLRSEDTAVYYCARGGYRDYMDVWGRGTTVTVSS
notes: hit from protein screening (ELISA); also called clone 40; anti-human CD19 scFv phage clone 40

These binders were tested against T1, Recombinant human CD19 ECD-Fc fusion … (assay: ELISA, plate coated with human CD19 ECD-Fc, phage clone detected with HRP-conjugated anti-M13 antibody, OD450).
Description: Individual phage clones from enriched phage display panning pools were incubated in the coated plates. Binding of the phage clones was detected by HRP-conjugated anti-M13 antibodies and developed using HRP substrate. The absorbance was read at 450 nm.
B1: binds. B2: binds. B3: binds. B4: binds. B5: binds.

What follows are binders tested against T2, human CD19 expressed on the cell … (assay: flow cytometry, phage clone then mouse anti-M13 antibody then R-PE anti-mouse IgG; CD19+ Raji and 3T3-CD19, CD19- Jurkat and 3T3; MFI).
Description: ELISA-positive phage clones were then tested for cell-surface human CD19 binding by flow cytometry using human CD19-positive Raji and 3T3-hCD19 cell lines, and human CD19 negative Jurkat and 3T3 cell lines (FIG. 1B). Cells were first stained with purified scFv phage clones, followed by mixing with a mouse anti-M13 monoclonal antibody, and finally a R-PE conjugated horse anti-mouse IgG (Vector Labs). Each step of staining was performed between 30-60 minutes on ice and cells were washed twice between stainings. One unique clone, 37, was identified to specifically bound human CD19⁺ Raji and 3T3-CD19 cells and not hCD19⁻ Jurkat and 3T3 (FIG. 1B).
B6: no binding.
